Source: patent US20050187147A1
Square brackets hold non-standard residues; d marks the D form. Primed or numbered codes have the meaning given here. * marks the point of attachment. 10Ca = carbamate linkage conjugating the peptide-PEG to paclitaxel at C10; PEG(13) = PEG13 linker; Piv = CC(C)(C)C(=O)*; PXL = paclitaxel

Biological target: Human Akt kinase (Upstate #14-276) (human), P31749
Test: cell-based or functional assay

Human Akt kinase (Upstate #14-276) (human), P31749, sequence (P31749 whole entry): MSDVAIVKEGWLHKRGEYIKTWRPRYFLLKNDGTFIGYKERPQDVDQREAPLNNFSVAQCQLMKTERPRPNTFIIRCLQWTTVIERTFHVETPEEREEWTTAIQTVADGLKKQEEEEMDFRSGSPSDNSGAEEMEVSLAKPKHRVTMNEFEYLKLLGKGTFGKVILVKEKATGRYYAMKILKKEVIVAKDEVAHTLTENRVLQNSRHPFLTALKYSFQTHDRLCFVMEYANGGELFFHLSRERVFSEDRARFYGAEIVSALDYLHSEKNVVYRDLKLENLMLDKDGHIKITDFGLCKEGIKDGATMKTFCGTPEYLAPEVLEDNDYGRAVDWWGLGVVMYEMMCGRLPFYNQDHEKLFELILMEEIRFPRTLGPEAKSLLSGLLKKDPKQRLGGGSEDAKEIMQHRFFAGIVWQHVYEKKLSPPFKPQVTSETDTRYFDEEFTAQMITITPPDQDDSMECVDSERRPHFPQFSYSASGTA

B1: Pv-GRPRTSsFAEG-PEG(13)-10Ca-PXL (peptide)
peptide: Piv-GRPRTS[dS]FAEG-{PEG(13)-10Ca-PXL}
Q: For B1, which Ave. Akt Kinase Act. (% of parent peptide activity) is on record?
A: Its Ave. Akt Kinase Act. (% of parent peptide activity) is 0.
